Three molecules from US20080305111A1 (VACCINEX, published 2008) can be followed below.

In assay [1] the target is T1, C35 protein (recombinant, construct not stated) (human, UniProt Q9BRT3 1-115, limits assumed).
T1 construct: also called recombinant C35 protein; control C35 protein
T1 sequence: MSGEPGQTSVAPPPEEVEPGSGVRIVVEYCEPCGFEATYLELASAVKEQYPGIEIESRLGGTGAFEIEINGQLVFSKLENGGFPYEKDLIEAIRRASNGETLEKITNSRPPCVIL
The assay is described as follows: ELISA on C35 or control protein A27L, secreted antibody from HeLa cells.

In assay [2] the target is T1, C35 protein (recombinant, construct not …). Kind of assay: ELISA and Western blot.
Assay [3] addresses T2, 6×His-tagged recombinant human C35 (human).
T2 construct: Made in E. coli; also called rhC35; rC35
Kind of assay: SPR (Biacore), MAb 163 captured on goat anti-human IgG Fc on a CM5 chip, rC35 in solution, 1:1 kinetic model.

Assay [4] concerns the target T3, #5 (8454).
T3 construct: One member of the group m17; also called predicted partial Lys-C digest fragment #5 of rhC35; 8kDa N-terminal fragment
T3 N-terminal fragment of 6-His-tagged rhC35, from the N-terminus to the first Lys-C tick: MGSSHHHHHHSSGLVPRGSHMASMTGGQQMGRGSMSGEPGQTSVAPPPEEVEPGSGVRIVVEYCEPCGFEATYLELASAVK
The assay is described as follows: Western blot of partially Lys-C digested rhC35, MAb 163, goat anti-human-HRP, TMB.

B1: MAb 165 (antibody, V domains shown)
VH: QVQLQESGPGLVKPPETLSLTCNVSGGSIGRYYWNWIRQSPGKGLEWIGHIHYSGSTIYHPSLKSRVSISLDTSKNQVSLKLSSVTAADTAVYYCARGAYYGGAFFPYFDVWGQGTTVTVSS
VL: DIQMTQSPSSLSASMGDRVTITCRASQGIRNHLAWYQQKPGKAPNLLISAASTLQSGVPTRFSGSGSGTDFTLTISSLQPEDSATYYCQQYNRYPLTFGQGTKLEIK
notes: also called 141D10 VH H732 with UH8 VK L120
As for B1, the binding result in assay [1] is recorded as “binds”.

B2: 1B3 murine anti-C35 monoclonal antibody (antibody, V domains shown)
VH: EVQLQESGPSLVKPSQTLSLTCSVTGDSITSGYWNWIRKFPGNKLEYVGYISYSGGTYYNPSLKSRISITRDTSKNHYYLQLNSVTTEDTATYYCARGAYYGGAFFPYFDVWGAGTTVTVSS
VL: DVQITQSPSFLAASPGETITINCRASKYISKHLVWYQEKPGETKKLLIYSGSTLQSGLPSRFSGSGSGTDFTLTISSLEPEDFAMYYCQQHNEYPLTFGAGTKLELK
notes: also called hybridoma 1B3.6.1
For B2, the binding result in assay [2] is “binds”.

B3: MAb 163 human anti-C35 monoclonal antibody (antibody, V domains shown)
VH: EVQLVESGGGLVKPGGSLRLSCEVSGITFSNAWMSWVRQAPGKGLEWVGRIKSKTDGGTTDYAAPVKGRFTISRDDSKNTLYLQMNSLKTEDTAVYYCSIGYYYDSSFKYGMDVWGQGTTVTVSS
VL: DIQMTQSPATLSASVGDRVTITCRASQSISRWLAWYQQKPGQAPKVLIYKASTLQSGVPSRFSGSGSGTEFSLTINSLQPDDFATYYCQQYYSYLRTFGQGTKLEIK
notes: Fully human antibody (clones H730 and L74), detected or captured with anti-human IgG reagents
For the molecule B3, in assay [3], the Ka was found to be 2.96e+08 M⁻¹, the Kd was 3.38 nM, the koff came to 0.000959 s⁻¹ and the kon was found to be 284000 M⁻¹ s⁻¹. Besides, the binding result in assay [4] was “no binding”.
